The text below walks through data of patent US20150094211, “POLYMERASE COMPOSITIONS, METHODS OF MAKING AND USING SAME” (LIFE TECHNOLOGIES CORPORATION, published 2015).

Holding throughout (settings): label: fluorescein-dT at N (position 34); hairpin with 5' overhang
For series [1], the target named is Klenow fragment (wild type) (UniProt P00582 SEQ:2-606). The series can be described thus: reference; dissociates 13-fold faster than D505R; rate constant only in figure.
For series [2], the target named is Klenow fragment D505R (LR1) (UniProt P00582 SEQ:2-606, D505R). The series can be described thus: fluorescence dissociation with excess hairpin oligo 173 competitor (SEQ 22); 30 mM Tris pH 7.5, 20 mM NaCl; mutant dissociates slower. On the procedure:
(§1) To perform the assay, reactions (75 μl) containing 30 mM Tris (pH 7.5), 20 mM NaCl, 50 nM oligo 221, and ˜10-200 nM partially polymerase samples (prepared according to Example 1) were assembled in 96-well plates. Baseline readings were then taken on the spectrophotometer using 490 nm excitation and 525 nm emission wavelengths. The 173 competitor oligo (2 μM final concentration) was then rapidly added to each well and plates were rapidly returned to the spectrophotometer for readings every 30 seconds for 5 minutes. The dissociation rate was calculated by fitting the data to a one-phase exponential decay equation using PrismGraph® according to the following formula: […]
(§2) Various exemplary mutations were introduced via site-directed mutagenesis into exemplary reference polymerases to generate modified polymerases. In this example, reference polymerase SEQ ID NO: 2 was modified to contain a further amino acid mutation (D480R). Reference polymerase SEQ ID NO: 15 was also modified to contain a further amino acid mutation (D732R). Additionally, reference polymerase SEQ ID NO: 18 was modified to contain amino acid mutation (D505R). The modified polymerases were sequence verified, and expressed essentially according to the procedure of Example 1. The modified polymerases were then assayed to measure dissociation rate constant essentially according to the procedure of Example 2.

Series [3] addresses T1, Bst DNA polymerase D480R (LR1; D775R in full-length numbering) (D480R).
T1 chain: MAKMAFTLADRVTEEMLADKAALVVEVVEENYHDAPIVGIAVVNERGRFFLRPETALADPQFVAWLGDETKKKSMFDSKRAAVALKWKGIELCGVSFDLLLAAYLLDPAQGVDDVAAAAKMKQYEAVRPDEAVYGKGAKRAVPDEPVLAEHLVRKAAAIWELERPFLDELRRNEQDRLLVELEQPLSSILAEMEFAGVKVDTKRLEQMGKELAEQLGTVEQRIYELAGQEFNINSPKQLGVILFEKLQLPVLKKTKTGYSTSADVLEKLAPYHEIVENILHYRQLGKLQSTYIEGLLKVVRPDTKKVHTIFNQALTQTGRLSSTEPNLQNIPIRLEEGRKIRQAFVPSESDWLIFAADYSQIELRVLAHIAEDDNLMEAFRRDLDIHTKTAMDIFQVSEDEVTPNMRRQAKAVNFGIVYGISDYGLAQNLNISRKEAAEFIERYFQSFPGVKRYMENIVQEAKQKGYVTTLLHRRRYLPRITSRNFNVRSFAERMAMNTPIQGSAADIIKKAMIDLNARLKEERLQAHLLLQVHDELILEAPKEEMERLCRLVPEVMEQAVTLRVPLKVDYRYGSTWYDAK
The series is described as above. On the procedure: as §1, §2

For series [4], the target named is T2, Bst DNA polymerase F448K (labelled 488K in the text for FIG. 2) (F448K).
T2 chain: T1 chain with F448K, R480D
Nature of the series: dissociation time constant at varying salt; values only in figure; mutation printed as 488K and F448K. On the procedure:
(§3) Dissociation is measured by the decrease in fluorescence that occurs when the Bst polymerase dissociates from the template. Dissociation is initiated by adding a vast excess of unlabeled, competitor DNA (hairpin oligo 173) having the following nucleotide sequence:
as §1

For series [5], the target named is T3, Bst DNA polymerase large fragment (Bst 1.0, reference).
T3 chain: T1 chain with R480D
Nature of the series: reference; dissociates 4.7-fold faster than D480R; rate constant only in figure.

The next series deals with Taq DNA polymerase E745Q (UniProt P19821 SEQ:1-832, E745Q). The series can be described thus: fluorescence dissociation with excess hairpin oligo 173 competitor (SEQ 22); mutant dissociates slower. The method, then:
as §1
(§4) Various exemplary mutations were introduced via site-directed mutagenesis into an exemplary reference polymerase (wild-type Taq DNA polymerase SEQ ID NO: 15) to generate a series of modified Taq DNA polymerases. In this example, reference polymerase, SEQ ID NO: 15 was modified to contain a single amino acid mutation selected from D732R, E745Q or E471K. Each modified polymerase was sequence verified, and expressed essentially according to Example 1. The modified polymerases were then assayed to measure dissociation rate constant essentially according to Example 2.

The target of a further series is Taq DNA polymerase E471K (UniProt P19821 SEQ:1-832, E471K). Described as above. The method, then: as §1, §4
A further series addresses T4, Bst DNA polymerase D144K (D144K).
T4 chain: T1 chain with D144K, R480D
Nature of the series: dissociation time constant at varying salt; values only in figure. The method, then: as §3, §1

For a further series, the target named is T5, Bst DNA polymerase G425R (G425R).
T5 chain: T1 chain with G425R, R480D
Described as above. The method, then: as §3, §1

The target of series [6] is Taq DNA polymerase D732R (LR1 Taq) (UniProt P19821 SEQ:1-832, D732R). Nature of the series: fluorescence dissociation with excess hairpin oligo 173 competitor (SEQ 22); 30 mM Tris pH 7.5, 20 mM NaCl; mutant dissociates slower. On the procedure: as §1, §4

Positions count from the first letter of the chain named.

Sequence of Taq DNA polymerase D732R (LR1 Taq) (P19821 whole entry D732R): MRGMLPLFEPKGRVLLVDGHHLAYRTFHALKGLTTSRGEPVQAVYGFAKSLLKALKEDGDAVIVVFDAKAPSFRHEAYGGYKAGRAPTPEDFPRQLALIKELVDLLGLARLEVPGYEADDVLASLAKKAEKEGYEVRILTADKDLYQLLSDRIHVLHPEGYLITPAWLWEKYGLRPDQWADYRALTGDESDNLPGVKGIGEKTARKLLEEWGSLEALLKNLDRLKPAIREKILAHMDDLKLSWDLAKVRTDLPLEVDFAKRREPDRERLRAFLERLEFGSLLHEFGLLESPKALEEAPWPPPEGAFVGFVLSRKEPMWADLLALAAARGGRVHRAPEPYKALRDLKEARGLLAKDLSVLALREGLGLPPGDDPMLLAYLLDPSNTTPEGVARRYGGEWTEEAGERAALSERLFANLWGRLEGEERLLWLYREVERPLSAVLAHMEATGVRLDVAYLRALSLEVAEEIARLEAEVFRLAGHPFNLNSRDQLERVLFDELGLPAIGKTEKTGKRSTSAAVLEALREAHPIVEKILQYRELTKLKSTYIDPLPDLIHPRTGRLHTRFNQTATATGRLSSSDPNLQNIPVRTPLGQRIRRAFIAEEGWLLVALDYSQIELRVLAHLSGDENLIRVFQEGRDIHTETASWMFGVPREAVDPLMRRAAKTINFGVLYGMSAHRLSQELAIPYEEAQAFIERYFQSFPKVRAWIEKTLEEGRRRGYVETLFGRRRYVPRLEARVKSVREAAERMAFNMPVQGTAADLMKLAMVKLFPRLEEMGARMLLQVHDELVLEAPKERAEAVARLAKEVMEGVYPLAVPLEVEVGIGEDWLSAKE
Sequence of Taq DNA polymerase E745Q (P19821 whole entry E745Q): as the sequence (P19821 whole entry D732R) above, with R732D, E745Q counted along it
Sequence of Taq DNA polymerase E471K (P19821 whole entry E471K): as the sequence (P19821 whole entry D732R) above, with E471K, R732D counted along it

On to TTTTTTTGCAGGTGACAGGTTTTTCCTGTCACCTGC (structured_DNA, [fluorescein-dT at 34]) [oligo 221], for which the binding result (in series [1]; in series [4]; in series [5]; with Bst DNA polymerase D144K; with Bst DNA polymerase G425R) was “binds” in each case. In addition, the binding signal is 13 fold (koff wt/koff mutant) in [2]; 4.7 fold (koff reference/koff mutant) in series [3]; 4.7 fold (koff wt/koff mutant) in the series with Taq DNA polymerase E745Q; 5 fold (koff wt/koff mutant) with Taq DNA polymerase E471K; 14.1 fold (koff wt/koff mutant) in series [6].
